Assay results as given in patent US12012599B2, “Compositions and methods for modulating left-right differentiation factor (LEFTY) and bone morphogenic factor (BMP)” (CZ Biohub SF LLC, priority 2018, dated 2024).

B1: NODAL: TGF-β family ligand that induces phosphorylation of SMAD2/3 (protein, UniProt Q96S42 238-347, looked up)
Nodal homolog: HHLPDRSQLCRKVKFQVDFNLIGWGSWIIYPKQYNAYRCEGECPNPVGEEFHPTNHAYIQSLLKRYQPHRVPSTCCAPVKTKPLSMLYVDNGRVLLDHHKDMIVEECGCL
B2: CRIPTO-1: soluble EGF-CFC Nodal co-receptor (protein, UniProt P13385 31-150, looked up)
Protein Cripto: LGHQEFARPSRGYLAFRDDSIWPQEEPAIRPRSSQRVPPMGIQHSKELNRTCCLNGGTCMLGSFCACPPSFYGRNCEHDVRKENCGSVPHDTWLPKKCSLCKCWHGQLRCFPQAFLPGCD

Test system: mammary epithelial cells
Test: 3D organotypic mammary organoid formation
Assay type: cell-based, mouse
Conditions: for organoid formation (frequency, number of colonies): Wnt-dependent organoid culture
Method: FIGS. 8A-8D. Autocrine and paracrine effects of NODAL and LEFTY1 in mammary epithelial cell populations. […] The sorted cells were grown in the 3D organotypic assays to test their organoid formation potential in the presence of NODAL. […] Each dot represents an organoid (n=3). […] Data are represented as median±S.D. Statistical analysis, One-way ANOVA with Dunnet's adjustment, **p<0.01.
FIGS. 9A-9F. Opposing effects of LEFTY1 and BMP7 in mammary organoid formation. […] Data are represented as median±S.D. Statistical analysis, one-way ANOVA with Dunnet's adjustment, *p<0.05; **p<0.01; ***p<0.001.
Since LEFTY1 and BMP7 were able to affect the branching of mammary glands, we hypothesized that the LEFTY1/BMP7 signaling axis may affect the proliferation of mammary epithelial cells. We exposed freshly dissociated mammary epithelial cells to NODAL, LEFTY1, BMP7 and CRIPTO-1 in a modified Wnt-dependent in vitro organoid culture system that was optimized for progenitor cell propagation (Zeng & Nusse, Cell Stem Cell 6, 568-577 (2010) and Jamieson et al., Development 144, 1065-1071 (2017)). In Xenopus, Wnt signaling controls the expression of Nodal and Cripto-1 during gastrulation. Consistent with the evolutionary conservation of the interaction between the Nodal and Wnt pathways (Branford et al., Curr Biol 12, 2136-2141 (2002)), NODAL had no effect on organoid formation in our Wnt-driven culture system (FIG. 8A).
In organoid cultures, the basal cells give rise to mixed phenotype colonies of luminal and basal cells. To prevent the formation of LEFTY1-expressing cells during organoid formation, genetic knockdown of LEFTY1 was done. To knock-down mouse LEFTY1, pSICO-R lentiviral vector was used (Ventura, PNAS, 2004). Different shRNAs were designed and cloned into pSICO-R. The target sequences of the shRNAs cloned were GGACAAGGCTGATGTGGAA (SEQ ID NO: 14) and GCAGGTTCCTGGTGTCAGA (SEQ ID NO: 15). The efficiency of knock-down was tested by transfecting HEK293T cells with pSICO-R-shLEFTY1 constructs with pEGFP-C3-LEFTY1 at 1:4 and 1:20 ratio. Decrease on GFP signal was used to calculate the percentage of inhibition of the shLEFTY sequences. […] (p<0.001 and p<0.01, respectively) (FIGS. 8C-8D and FIGS. 9E-9F).

| Molecule | organoid formation (frequency, number of colonies) | effect on LEFTY1's increase of organoid formation (in combination with LEFTY1) |
| --- | --- | --- |
| B1 | no effect | – |
| B2 | did not have a significant effect | enhanced |
